The values below come from paper PMC6424611 (Journal of molecular biology, 2019).

For assay [1], the target named is T1, biotinylated RSK1 725-735 peptide, unphosphorylated (human, UniProt Q15418 725-735).
T1 peptide (looked up): {Biotin-TTDS}-RRVRKLPSTTL
As to the kind of experiment: holdup assay.

Assay [2] concerns the target T2, MBP-fused PDZ domain 2 of GRID2IP (human, UniProt A4D2P6 279-356). In words: fluorescence polarisation. In general terms: In fluorescence polarisation assays a small probe gives low polarisation when free and higher when bound to something large.
In assay [3] the target is T3, MBP-fused PDZ domain of ARHGEF12 (human, UniProt Q9NZN5 72-151).
T3 sequence (looked up): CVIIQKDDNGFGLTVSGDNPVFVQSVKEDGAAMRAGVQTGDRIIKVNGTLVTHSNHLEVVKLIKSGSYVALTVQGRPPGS
As to the kind of experiment: fluorescence polarisation.

Assay [4] deals with T4, MBP-fused PDZ domain of SNTG2 (human, UniProt Q9NY99 73-156).
T4 sequence (looked up): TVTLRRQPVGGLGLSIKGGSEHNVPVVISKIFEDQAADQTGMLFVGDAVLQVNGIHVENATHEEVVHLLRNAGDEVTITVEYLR
As to the kind of experiment: fluorescence polarisation.

Assay [5] addresses T5, MBP-fused PDZ domain 1 of PARD3B (human, UniProt Q8TEW8 201-289).
T5 sequence (looked up): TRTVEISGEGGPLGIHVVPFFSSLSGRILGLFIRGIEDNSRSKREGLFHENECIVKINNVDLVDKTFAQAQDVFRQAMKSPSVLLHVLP
In words: fluorescence polarisation.

The target in assay [6] is T6, MBP-fused PDZ domain of MAST1 (human, UniProt Q9Y2H9 967-1055).
T6 sequence (looked up): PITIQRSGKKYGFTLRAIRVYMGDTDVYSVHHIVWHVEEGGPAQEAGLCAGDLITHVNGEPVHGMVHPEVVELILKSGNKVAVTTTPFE
As to the kind of experiment: fluorescence polarisation.

Assay [7] deals with T7, MBP-fused PDZ domain of HTRA1 (human, UniProt Q92743 365-467). As to the kind of experiment: fluorescence polarisation.
Assay [8] deals with T8, MBP-fused PDZ domain of SYNJ2BP (human, UniProt P57105 13-100).
T8 sequence (looked up): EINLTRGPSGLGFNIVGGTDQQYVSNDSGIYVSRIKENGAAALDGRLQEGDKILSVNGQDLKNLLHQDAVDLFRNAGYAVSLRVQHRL
In words: fluorescence polarisation.

Assay [9] concerns the target T9, MBP-fused PDZ domain of SNTB1 (human, UniProt Q13884 112-195).
T9 sequence (looked up): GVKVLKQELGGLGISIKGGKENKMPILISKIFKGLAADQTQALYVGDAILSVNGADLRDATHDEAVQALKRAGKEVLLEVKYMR
As to the kind of experiment: fluorescence polarisation.

Assay [10] addresses T10, MBP-fused PDZ domain 1 of PDZRN3 (human, UniProt Q9UPQ7 249-339).
T10 sequence (looked up): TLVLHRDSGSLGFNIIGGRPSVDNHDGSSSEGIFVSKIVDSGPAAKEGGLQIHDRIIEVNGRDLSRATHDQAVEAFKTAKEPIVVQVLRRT
As to the kind of experiment: fluorescence polarisation.

The target in assay [11] is T11, MBP-fused PDZ domain 1 of PDZRN4 (human, UniProt Q6ZMN7 224-314).
T11 sequence (looked up): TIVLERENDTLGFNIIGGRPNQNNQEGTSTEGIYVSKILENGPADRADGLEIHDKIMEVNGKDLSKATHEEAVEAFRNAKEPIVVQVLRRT
As to the kind of experiment: fluorescence polarisation.

The target in assay [12] is T12, MBP-fused PDZ domain of MAST2 (human, UniProt Q6P0Q8 1104-1192).
T12 sequence (looked up): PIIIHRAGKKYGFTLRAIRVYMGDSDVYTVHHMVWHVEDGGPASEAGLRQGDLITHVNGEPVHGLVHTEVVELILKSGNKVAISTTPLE
In words: fluorescence polarisation.

Assay [13] addresses MBP-fused PDZ domain 2 of MAGI2 (human, UniProt Q86UL8 426-510). In words: fluorescence polarisation.
Assay [14] concerns the target T13, MBP-fused PDZ domain 3 of PDZD7 (human, UniProt Q9H5P4 862-934).
T13 sequence (looked up): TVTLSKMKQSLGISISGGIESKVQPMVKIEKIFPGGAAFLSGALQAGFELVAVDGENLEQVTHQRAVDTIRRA
As to the kind of experiment: fluorescence polarisation.

Assay [15] addresses T14, MBP-fused PDZ domain of SNX27 (human, UniProt Q96L92 43-136). In words: fluorescence polarisation.
For assay [16], the target named is T15, MBP-fused PDZ domain 1 of NHERF3 (human, UniProt Q5T2W1 9-90).
T15 sequence (looked up): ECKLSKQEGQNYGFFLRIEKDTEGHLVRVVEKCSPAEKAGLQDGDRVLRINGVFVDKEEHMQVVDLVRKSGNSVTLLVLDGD
As to the kind of experiment: fluorescence polarisation.

Assay [17] addresses T16, MBP-fused PDZ domain of SNTA1 (human, UniProt Q13424 87-170).
T16 sequence (looked up): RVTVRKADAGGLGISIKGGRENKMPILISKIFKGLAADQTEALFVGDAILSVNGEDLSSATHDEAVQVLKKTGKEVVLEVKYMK
In words: fluorescence polarisation.

Assay [18] has as its target T2, MBP-fused PDZ domain 2 of GRID2IP. As to the kind of experiment: fluorescence polarisation. The source holds these as a separate data set.
Assay [19] deals with T4, MBP-fused PDZ domain of SNTG2. As to the kind of experiment: fluorescence polarisation. This is another data set of the same source.
The target in assay [20] is T5, MBP-fused PDZ domain 1 of PARD3B. In words: fluorescence polarisation. The source holds these as a separate data set.
For assay [21], the target named is T6, MBP-fused PDZ domain of MAST1. In words: fluorescence polarisation. The source holds these as a separate data set.
The target in assay [22] is T7, MBP-fused PDZ domain of HTRA1. In words: fluorescence polarisation. The source holds these as a separate data set.
Assay [23] addresses T9, MBP-fused PDZ domain of SNTB1. As to the kind of experiment: fluorescence polarisation. The source holds these as a separate data set.
Assay [24] addresses T12, MBP-fused PDZ domain of MAST2. In words: fluorescence polarisation. The source holds these as a separate data set.
Assay [25] deals with T13, MBP-fused PDZ domain 3 of PDZD7. As to the kind of experiment: fluorescence polarisation. The source holds these as a separate data set.
Assay [26] has as its target T14, MBP-fused PDZ domain of SNX27. In words: fluorescence polarisation. This is another data set of the same source.
Assay [27] deals with T16, MBP-fused PDZ domain of SNTA1. In words: fluorescence polarisation. This is another data set of the same source.

Read-outs that look alike come from different tables or passages of the source. Where no end group is shown, it is not given here. The star is where a group is joined. Biotin = O=C1N[C@H]2[C@H](CS[C@H]2CCCCC(=O)*)N1; TTDS = NCCCOCCOCCOCCCNC(=O)CCC(=O)*

T7 sequence (Q92743 365-467): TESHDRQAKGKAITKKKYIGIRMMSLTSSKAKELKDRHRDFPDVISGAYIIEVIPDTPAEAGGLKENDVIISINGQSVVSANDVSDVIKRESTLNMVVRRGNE
T2 sequence (A4D2P6 279-356): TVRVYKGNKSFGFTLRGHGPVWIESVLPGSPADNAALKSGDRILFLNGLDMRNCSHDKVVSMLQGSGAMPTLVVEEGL
Chain of MBP-fused PDZ domain 2 of MAGI2 (Q86UL8 426-510): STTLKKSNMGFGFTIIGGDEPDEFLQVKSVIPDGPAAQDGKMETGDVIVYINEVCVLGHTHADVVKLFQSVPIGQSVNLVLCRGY

B1: first PDZ domain of Scribble (domain or fragment)
chain: not shown
B1: in assay [1], the Kd fell in the range of 60 to 70 µM.

Consider KLPSTTL (peptide, UniProt Q15418 729-735, looked up, also: fluorescein labeled, site not given here) [fluorescein labeled RSK1 729-735 peptide, unphosphorylated], for which the Kd in assay [2] came out at 5.1 ± 0.4 µM; in assay [3], 7.5 ± 0.8 µM; in assay [4] it was 65 ± 2 µM; in assay [5], 27 ± 3 µM; in [6], 26 ± 4 µM; in [7], 30 ± 2 µM. Moreover, the Kd in [8] was 39 ± 2 µM; in assay [9], 18 ± 2 µM; in assay [10], 90 ± 25 µM; in assay [11] it was 33 ± 5 µM; in assay [12] it was 7.9 ± 0.6 µM; in assay [13], 420 ± 30 µM. Also, the Kd came to 0.8 ± 0.05 µM in assay [14], 25 ± 6 µM in [15], 80 ± 20 µM in assay [16] and 41 ± 11 µM in assay [17].

B2: RSK1 683-735 peptide, unphosphorylated (peptide, UniProt Q15418 683-735, looked up)
peptide: QSQLSHQDLQLVKGAMAATYSALNSSKPTPQLKPIESSILAQRRVRKLPSTTL
In the case of B2, the Kd in [18] was found to be 1.7 ± 0.3 µM; in [19], 24 ± 12 µM; in assay [20], 45 ± 7 µM; in [21] it was 5 ± 1 µM; in assay [22] it was 19 ± 3 µM; in assay [23], 37 ± 6 µM. Besides, the Kd came out at 19 ± 7 µM in assay [24], 4 ± 1 µM in assay [25], 185 ± 25 µM in [26] and 81 ± 17 µM in [27].

On to KLPSTTL (peptide, UniProt Q15418 729-735, looked up, phosphorylated; fluorescein labeled) [fluorescein labeled RSK1 729-735 peptide, phosphorylated], for which the Kd was found to be 47 ± 15 µM in assay [2]; 29 ± 8 µM in [3]; 24 ± 2 µM in assay [4]; 6.8 ± 0.5 µM in assay [5]; 34 ± 8 µM in [6]; 11.3 ± 0.4 µM in [7]. Moreover, the Kd in assay [8] came out at 16 ± 1 µM; in assay [9] it was 1.5 ± 0.1 µM; in assay [10], 17.5 ± 1.4 µM; in assay [11] it was 14 ± 2 µM; in assay [12] it was 13 ± 2 µM; in [13] it was 430 ± 45 µM. For the same molecule, the Kd in assay [14] is 1.8 ± 0.1 µM; in assay [15], 4.4 ± 0.4 µM; in [16] it was 220 ± 30 µM; in assay [17], 4.9 ± 0.4 µM.

Usually Kd stands for the constant that tells how readily two partners part at equilibrium. High values mean lower affinity, low ones higher affinity.
